Drawing on article PMC7442826 (2020), this text covers Kd and koff for five molecules.

B5: EHBP1 bMERB domain (bMERB_(1060-1212), full-length bMERB domain) (domain or fragment)
chain: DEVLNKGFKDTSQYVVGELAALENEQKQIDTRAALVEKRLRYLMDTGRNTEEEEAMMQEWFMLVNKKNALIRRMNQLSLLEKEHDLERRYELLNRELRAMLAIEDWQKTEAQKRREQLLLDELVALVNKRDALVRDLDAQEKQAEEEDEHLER

The target in experiment [1] is B5. In words: ITC.
The target of experiment [2] is EHBP1 bMERB domain R1189A (human, UniProt Q8NDI1-1 1060-1212, R1189A). In words: ITC; GppNHp.
For experiment [3], the target named is EHBP1 bMERB domain L1156S (human, UniProt Q8NDI1-1 1060-1212, L1156S). Nature of the experiment: ITC; GppNHp.
EHBP1 bMERB domain L1156S, sequence (Q8NDI1 1060-1212 L1156S): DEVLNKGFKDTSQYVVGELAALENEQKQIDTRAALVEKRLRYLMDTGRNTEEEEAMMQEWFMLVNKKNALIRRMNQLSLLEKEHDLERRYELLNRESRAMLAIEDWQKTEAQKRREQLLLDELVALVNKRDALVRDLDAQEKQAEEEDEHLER
Experiment [4] has as its target EHBP1 bMERB domain Q1176A (human, UniProt Q8NDI1-1 1060-1212, Q1176A). Nature of the experiment: ITC; GppNHp.
The target of experiment [5] is EHBP1 bMERB domain L1182S (human, UniProt Q8NDI1-1 1060-1212, L1182S). In words: ITC; GppNHp.
EHBP1 bMERB domain L1182S, sequence (Q8NDI1 1060-1212 L1182S): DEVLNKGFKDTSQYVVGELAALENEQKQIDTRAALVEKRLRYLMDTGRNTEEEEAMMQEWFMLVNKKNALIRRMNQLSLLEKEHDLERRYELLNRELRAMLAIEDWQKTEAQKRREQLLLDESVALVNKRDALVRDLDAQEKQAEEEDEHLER
The target in experiment [6] is EHBP1 bMERB domain L1179S (human, UniProt Q8NDI1-1 1060-1212, L1179S). Nature of the experiment: ITC; GppNHp.
EHBP1 bMERB domain L1179S, sequence (Q8NDI1 1060-1212 L1179S): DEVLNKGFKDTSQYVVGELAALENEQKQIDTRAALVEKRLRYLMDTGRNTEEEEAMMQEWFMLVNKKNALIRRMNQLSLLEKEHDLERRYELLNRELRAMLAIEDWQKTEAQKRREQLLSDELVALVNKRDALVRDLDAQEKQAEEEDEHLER
In experiment [7] the target is EHBP1 bMERB domain N1187A (human, UniProt Q8NDI1-1 1060-1212, N1187A). Nature of the experiment: ITC; GppNHp.
EHBP1 bMERB domain N1187A, sequence (Q8NDI1 1060-1212 N1187A): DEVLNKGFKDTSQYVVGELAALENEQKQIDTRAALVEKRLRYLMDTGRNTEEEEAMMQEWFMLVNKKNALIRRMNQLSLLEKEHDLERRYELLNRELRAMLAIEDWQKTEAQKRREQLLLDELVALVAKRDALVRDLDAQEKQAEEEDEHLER
The target of experiment [8] is B5. Nature of the experiment: displacement by GppNHp Rab8a.
The target of experiment [9] is EHBP1 full-length bMERB domain M1103A (human, UniProt Q8NDI1-1 1060-1212, M1103 to alanine). In words: ITC.
EHBP1 full-length bMERB domain M1103A, sequence (Q8NDI1 1060-1212 M1103A): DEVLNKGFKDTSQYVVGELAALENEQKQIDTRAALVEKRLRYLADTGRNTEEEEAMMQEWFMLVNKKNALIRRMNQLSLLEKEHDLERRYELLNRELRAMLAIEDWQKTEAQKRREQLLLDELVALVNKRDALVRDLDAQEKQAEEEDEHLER
The target of experiment [10] is EHBP1 full-length bMERB domain M1116A (human, UniProt Q8NDI1-1 1060-1212, M1116A). Nature of the experiment: ITC.
EHBP1 full-length bMERB domain M1116A, sequence (Q8NDI1 1060-1212 M1116A): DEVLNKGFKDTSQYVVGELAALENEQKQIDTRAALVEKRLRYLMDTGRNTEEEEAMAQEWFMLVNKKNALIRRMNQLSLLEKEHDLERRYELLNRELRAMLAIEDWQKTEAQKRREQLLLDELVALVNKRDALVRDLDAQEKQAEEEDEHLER
The target of experiment [11] is Rab8a_(1-176_T72E) (phosphomimetic Rab8a) (human, UniProt P61006 1-176, T72E). Nature of the experiment: ITC.
Another experiment has as its target EHBP1 CH domain Y541A (human, UniProt Q8NDI1-1 440-550, Y541 to alanine). In words: ITC.
A further experiment concerns the target EHBP1 CH domain D532A (human, UniProt Q8NDI1-1 440-550, D532 to alanine). In words: ITC.
The target in a further experiment is EHBP1 CH domain Q542A (human, UniProt Q8NDI1-1 440-550, Q542 to alanine). Nature of the experiment: ITC.
EHBP1 CH domain Q542A, sequence (Q8NDI1 1060-1212, stated change not applied): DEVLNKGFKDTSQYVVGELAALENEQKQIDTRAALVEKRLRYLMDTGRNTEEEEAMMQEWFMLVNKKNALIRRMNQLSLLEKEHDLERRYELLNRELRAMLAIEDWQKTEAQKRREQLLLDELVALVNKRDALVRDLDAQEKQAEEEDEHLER
In another experiment the target is EHBP1 CH domain M537A (human, UniProt Q8NDI1-1 440-550, M537 to alanine). Nature of the experiment: ITC.
EHBP1 CH domain M537A, sequence (Q8NDI1 1060-1212, stated change not applied): as above

EHBP1 bMERB domain Q1176A, sequence (Q8NDI1 1060-1212 Q1176A): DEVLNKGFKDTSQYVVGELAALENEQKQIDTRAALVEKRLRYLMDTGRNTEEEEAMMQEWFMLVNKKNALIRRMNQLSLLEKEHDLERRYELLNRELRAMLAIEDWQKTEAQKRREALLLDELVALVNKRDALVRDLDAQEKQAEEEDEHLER
EHBP1 bMERB domain R1189A, sequence (Q8NDI1 1060-1212 R1189A): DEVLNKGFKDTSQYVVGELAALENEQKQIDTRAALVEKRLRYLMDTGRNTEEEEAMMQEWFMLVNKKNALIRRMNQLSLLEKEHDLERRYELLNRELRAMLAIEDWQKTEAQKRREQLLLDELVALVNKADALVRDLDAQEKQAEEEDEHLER
EHBP1 CH domain Y541A, sequence (Q8NDI1 1060-1212, stated change not applied): as the sequence (Q8NDI1 1060-1212, stated change not applied) above
EHBP1 CH domain D532A, sequence (Q8NDI1 1060-1212, stated change not applied): as above

B1: Rab10_(1-175) (human Rab10 G-domain) (domain or fragment)
chain: MAKKTYDLLFKLLLIGDSGVGKTCVLFRFSDDAFNTTFISTIGIDFKIKTVELQGKKIKLQIWDTAGQERFHTITTSYYRGAMGIMLVYDITNGKSFENISKWLRNIDEHANEDVERMLLGNKCDMDDKRVVPKGKGEQIAREHGIRFFETSAKANINIEKAFLTLAEDILRKTP
For B1, the Kd in experiment [1] is 0.32 µM.

B2: Rab8a_(1-176) (human Rab8a G-domain) (domain or fragment)
chain: MAKTYDYLFKLLLIGDSGVGKTCVLFRFSEDAFNSTFISTIGIDFKIRTIELDGKRIKLQIWDTAGQERFRTITTAYYRGAMGIMLVYDITNEKSFDNIRNWIRNIEEHASADVEKMILGNKCDVNDKRQVSKERGEKLALDYGIKFMETSAKANINVENAFFTLARDIKAKMDKK
For B2, the Kd in experiment [2] is 6 µM; in experiment [3], 14.3 µM; in experiment [4], 0.33 µM; in experiment [5], 3.04 µM; in experiment [6], 3.23 µM; in experiment [7], 1.5 µM.

B3: Cy3 labeled EHBP1 CH domain (domain or fragment)
chain: GRKPNASQSLLVWCKEVTKNYRGVKITNFTTSWRNGLSFCAILHHFRPDLIDYKSLNPQDIKENNKKAYDGFASIGISRLLEPSDMVLLAIPDKLTVMTYLYQIRAHFSGQ
modifications: Cy3 on the N-terminus
In [8], B3 returned a koff of 165 s⁻¹.

B4: EHBP1 CH (calponin homology) domain (domain or fragment)
chain: GRKPNASQSLLVWCKEVTKNYRGVKITNFTTSWRNGLSFCAILHHFRPDLIDYKSLNPQDIKENNKKAYDGFASIGISRLLEPSDMVLLAIPDKLTVMTYLYQIRAHFSGQ
Take B4: the values for the Kd in [9] and in [10] were 34.7 µM and 15.8 µM, respectively.
B5: the Kd in experiment [11] is 0.4 µM; in the experiment with EHBP1 CH domain Y541A, 5.65 µM; with EHBP1 CH domain D532A, 43.5 µM; with EHBP1 CH domain Q542A, 3.85 µM; with EHBP1 CH domain M537A, 7.6 µM.
